Source: patent US20250277031A1 (BEIJING HANMI PHARMACEUTICAL, published 2025)

Tests used:
[1] = target: recombinant cynomolgus CD47 (cynomolgus, UniProt A0A2K5X523 19-139); assay: ELISA, plate coated with 1 µg/mL recombinant cynomolgus CD47, anti-human IgG-HRP, OD450
Method: (§1) Species specificity of the chimeric anti-human CD47 mAbs was determined by ELISA. A 96-well high-adsorption ELISA plate was coated with 1 μg/mL of the recombinant human CD47, cynomolgus CD47, rat CD47 and mouse CD47, at 100 μL per well using carbonate buffer solution, pH=9.6 at 4° C. overnight. The plate was washed 5 times with PBST, and then blocked using PBST with 1% BSA, 300 μL/well, and incubated at 25° C. for 1 hour, and then washed 5 times with PBST. The chimeric anti-human CD47 antibody samples serially diluted in PBST with 1% BSA were added, 100 μL/well, incubated at 25° C. for 1 hour, and then washed 5 times with PBST. The horseradish peroxidase-labeled anti-human IgG antibody (Chemicon, catalog number AP309P) diluted 1:10000 in PBST with 1% BSA was then added, 100 μL per well, and incubated at 25° C. for 1 hour. The plate was washed 5 times with PBST. The colorimetric substrate TMB was added, 100 μL/well, and developed at room temperature for 10 minutes. 1M H₂SO₄ was added, 100 μL/well, to stop the development. The absorbance at 450 nm was read on a microplate reader.

recombinant mouse CD47 = target: T1, recombinant mouse CD47 (mouse, UniProt Q61735 19-140, limits assumed); assay: ELISA, plate coated with 1 µg/mL recombinant mouse CD47, anti-human IgG-HRP, OD450
T1 sequence (looked up): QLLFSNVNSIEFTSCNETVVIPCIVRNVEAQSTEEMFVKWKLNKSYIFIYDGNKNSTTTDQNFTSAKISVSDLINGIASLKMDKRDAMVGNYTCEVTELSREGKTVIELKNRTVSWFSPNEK
Method: as §1

[2] = target: T2, recombinant human SIRPα (ACROBiosystems) (human, UniProt P78324 31-370); assay: ELISA, plate coated with 1 µg/mL recombinant human protein, anti-human IgG-HRP, OD450; antibody concentration not given
T2 construct: unlabelled protein coated in the specificity ELISA
Method: (§2) Binding specificity of the chimeric anti-human CD47 mAbs was determined by ELISA. A 96-well high-adsorption ELISA plate was coated with 1 μg/mL of the recombinant human PD1, CD28, CTLA4, ICOS, BTLA, CD47, PD-L2, CD80, CD86, B7-H2, CD47, SIRPα and SIRPγ (all from ACROBiosystems), at 100 μL per well using carbonate buffer solution, pH=9.6 at 4° C. overnight. The plate was washed 5 times with PBST, and then blocked using PBST with 1% BSA, 300 μL/well, and incubated at 25° C. for 1 hour, and then washed 5 times with PBST. The chimeric anti-human CD47 mAb samples serially diluted in PBST with 1% BSA and the control CC-90002 and the isotype control were added, 100 μL/well, incubated at 25° C. for 1 hour, and then washed 5 times with PBST. The horseradish peroxidase-labeled anti-human IgG antibody (Chemicon, catalog number AP309P) diluted 1:10000 in PBST with 1% BSA was then added, 100 μL per well, and incubated at 25° C. for 1 hour. The plate was washed 5 times with PBST. The colorimetric substrate TMB was added, 100 μL/well, and developed at room temperature for 10 minutes. 1M H₂SO₄ was added, 100 μL/well, to stop the development. The absorbance at 450 nm was read on a microplate reader.

[3] = target: T3, recombinant human CTLA4 (ACROBiosystems) (human, UniProt P16410 37-162, limits assumed); assay: as above
T3 construct: counted here as a CD28 family member
Method: as §2

[4] = target: T4, recombinant human BTLA (ACROBiosystems) (human, UniProt Q7Z6A9 31-151, limits assumed); assay: as above
T4 construct: counted here as a CD28 family member
Method: as §2

[5] = target: T5, recombinant human B7-H2 (ACROBiosystems) (human, UniProt O75144 19-258, limits assumed); assay: as above
T5 construct: counted here as a B7 family member
T5 sequence (looked up): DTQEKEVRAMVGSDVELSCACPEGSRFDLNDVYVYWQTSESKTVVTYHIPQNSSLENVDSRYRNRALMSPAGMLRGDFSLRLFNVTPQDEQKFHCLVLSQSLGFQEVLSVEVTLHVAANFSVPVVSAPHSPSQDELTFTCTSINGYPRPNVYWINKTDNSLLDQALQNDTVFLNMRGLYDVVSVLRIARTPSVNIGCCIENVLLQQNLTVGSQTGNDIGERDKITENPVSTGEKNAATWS
Method: as §2

[6] = target: recombinant human SIRPγ (ACROBiosystems) (human, UniProt Q9P1W8 29-360, limits assumed); assay: as above
Method: as §2

T3 sequence (P16410 37-162 limits assumed): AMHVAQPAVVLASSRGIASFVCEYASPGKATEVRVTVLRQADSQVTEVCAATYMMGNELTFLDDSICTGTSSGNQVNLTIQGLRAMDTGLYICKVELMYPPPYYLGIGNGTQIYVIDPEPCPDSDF
T2 sequence (P78324 31-370 limits assumed): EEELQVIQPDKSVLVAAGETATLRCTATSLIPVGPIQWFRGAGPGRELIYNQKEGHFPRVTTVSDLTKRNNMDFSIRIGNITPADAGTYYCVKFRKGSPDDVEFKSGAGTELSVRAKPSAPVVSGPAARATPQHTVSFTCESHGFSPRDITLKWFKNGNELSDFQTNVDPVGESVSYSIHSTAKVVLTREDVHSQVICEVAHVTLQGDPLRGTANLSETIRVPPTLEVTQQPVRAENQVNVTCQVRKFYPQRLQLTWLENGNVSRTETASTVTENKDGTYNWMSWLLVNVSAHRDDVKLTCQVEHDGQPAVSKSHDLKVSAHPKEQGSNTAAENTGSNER
T4 sequence (Q7Z6A9 31-151 limits assumed): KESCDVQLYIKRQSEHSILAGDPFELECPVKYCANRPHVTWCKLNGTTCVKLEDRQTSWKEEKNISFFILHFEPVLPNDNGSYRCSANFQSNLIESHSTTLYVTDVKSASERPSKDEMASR
Chain of recombinant human SIRPγ (ACROBiosystems) (Q9P1W8 29-360 limits assumed): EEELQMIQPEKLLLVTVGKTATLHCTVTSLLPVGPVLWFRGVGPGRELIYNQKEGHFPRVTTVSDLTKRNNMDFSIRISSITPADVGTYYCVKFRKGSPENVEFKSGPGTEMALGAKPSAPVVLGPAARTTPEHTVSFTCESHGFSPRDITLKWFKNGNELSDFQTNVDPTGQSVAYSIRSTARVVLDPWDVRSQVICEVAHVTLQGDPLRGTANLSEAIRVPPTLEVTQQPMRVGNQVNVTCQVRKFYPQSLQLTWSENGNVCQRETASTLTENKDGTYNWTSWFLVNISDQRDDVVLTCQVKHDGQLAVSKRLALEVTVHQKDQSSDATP

B1: chimeric anti-human CD47 monoclonal antibody mAb-18-5 (antibody, human IgG1, kappa)
heavy: not shown
light: DIVMTQSQKFMSTSVGDRVSITCKASQNVRTSIAWYQQKSGQSPKTLIYLASNRHTGVPDRFTGSGSGTDFTLTISNVQSEDLADYFCLQHWNYPFTFGSGTKLEIKRTVAAPSVFIFPPSDEQLKSGTASVVCLLNNFYPREAKVQWKVDNALQSGNSQESVTEQDSKDSTYSLSSTLTLSKADYEKHKVYACEVTHQGLSSPVTKSFNRGEC
[1]
  EC50: 89 pM
Recombinant mouse CD47
  binding result: no binding (tested: about 20 nM)
[2]
  binding result: no binding
[3]
  binding result: no binding
[4]
  binding result: no binding
[5]
  binding result: no binding
[6]
  binding result: no binding
